In the supplement of paper PMC10567573 one finds protein stability index data, which are given here for 37 sequences.

± gives the standard deviation.

This data set in a line: protein stability index of a GFP-peptide fusion (GPS, HEK-293T) (PSI 1-6); higher = more stable. Conditions: c terminus: a fixed tail appended.
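Further: 24-mer peptide tiles fused after GFP, lentivirally expressed, FACS-sorted into six equal bins by GFP/DsRed ratio, decoded by Illumina sequencing, PSI is the read-weighted mean bin number.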

LTKLLASKSKEEVSSLISEKTNGA [FEM1C]: the protein stability index (treatment: DMSO) was determined as 4.07 ± 0.22 and the protein stability index (treatment: MLN4924 1 uM, 8 h) was 4.38 ± 0.26.
For LTNSNLPEEELDFFEILRLFFPVI [CNOT7], in that order: 2.39 ± 0.31 and 2.47 ± 0.41.
Consider LTVYAWERGSMKTHFNTAQGFRTV [OAS1], for which the protein stability index by setting is: (treatment: DMSO) 2.72 ± 0.57; (treatment: MLN4924 1 uM, 8 h) 2.52 ± 0.21.
LVDHVGSKTFLCIGSSVMAASLVT [SLC2A12]: the protein stability index (treatment: DMSO) turned out to be 3.06 ± 0.76 and the protein stability index (treatment: MLN4924 1 uM, 8 h) came out at 3.05 ± 0.57.
For LVGLATAAFGHVQRAEMLPKTSGT [CPOX], in that order: 2.9 ± 0.3 and 2.91 ± 0.14.
For LWWDPIQRLLFSGASDNSIIMWDI [WDFY1], in that order: 2.65 ± 0.54 and 2.69 ± 0.83.
For the sequence LYLRVELSDVQNPAISITENVLHF [HACD3], the protein stability index by setting is: (treatment: DMSO) 2.82 ± 0.57; (treatment: MLN4924 1 uM, 8 h) 2.88 ± 0.64.
The like results for MAAVLNAERLEVSVDGLTLSPDPE [ACBD3] were, in that order, 4.41 ± 0.17 and 4.59 ± 0.17.
The like results for MAEAAALVWIRGPGFGCKAVRCAS [SDE2] were, in that order, 2.45 ± 0.47 and 2.35 ± 0.53.
The like results for MAQPLCIRALLNLHTDVGSVRMRR [NEK8] were, in that order, 2.48 ± 0.16 and 2.58 ± 0.099.
In turn, MCRVDLRGHMPEWYTKSFGHLCAA [DLC1] came in with a protein stability index (treatment: DMSO) of 2.23 ± 0.43 and a protein stability index (treatment: MLN4924 1 uM, 8 h) of 2.1 ± 0.53.
Turning to MDSGTRPVGSCCSSPAGLSREYKL [RIT1], the protein stability index (treatment: DMSO) stood at 3.35 ± 0.18 and the protein stability index (treatment: MLN4924 1 uM, 8 h) is 3.3 ± 0.16.
The like results for METSASSSQPQDNSQVHRETEDVD [TMEM40] were, in that order, 5.54 ± 0.25 and 5.56 ± 0.32.
For MEVGSGSRELSLRPSRSGAQQLEE [EID1], in that order: 5.43 ± 0.23 and 5.25 ± 0.35.
Regarding MFPGVLLPLLESCSVRPDASVSSH [TCF25], the protein stability index was 2.62 ± 0.38 (treatment: DMSO) and 2.18 ± 0.2 (treatment: MLN4924 1 uM, 8 h).
The like results for MGCLGVAKEDGKADTKKRHTPRGH [SMOC2] were, in that order, 5.15 ± 0.17 and 5 ± 0.12.
With MKACQEDDVRLLCHLTPSIYTEFP [INTS3], the protein stability index (treatment: DMSO) was 2.62 ± 0.28 and the protein stability index (treatment: MLN4924 1 uM, 8 h) came out at 2.55 ± 0.25.
For MKAKQEALVKEREKQLAKKEQSKE [FAM50A], in that order: 5.62 ± 0.24 and 5.55 ± 0.13.
For MKCQSYCEPPSYRPMHHEDFKEDL [CDC25A], the protein stability index by setting is: (treatment: DMSO) 3.77 ± 0.16; (treatment: MLN4924 1 uM, 8 h) 4.02 ± 0.23.
Take MLAIITKMTLTQVSTWFANARRRL [IRX6]: the protein stability index by setting is: (treatment: DMSO) 2.29 ± 0.49; (treatment: MLN4924 1 uM, 8 h) 2.26 ± 0.27.
For MLDSALRFQAMEETHLRHMKALLG [FCHO1], in that order: 2.23 ± 0.37 and 2.33 ± 0.25.
MLESPGAPCRSAQASVSCALEALE [HDAC6]: the protein stability index was 3.35 ± 0.58 (treatment: DMSO) and 3.38 ± 0.4 (treatment: MLN4924 1 uM, 8 h).
Take MPPKFKRHLNDDDVTGSVKSERRN [VAMP4]: the protein stability index is, setting by setting: (treatment: DMSO) 4.79 ± 0.27; (treatment: MLN4924 1 uM, 8 h) 4.84 ± 0.18.
Turning to MPSWASARDRQPSDFKTDKEGGQA [ELOA2], the protein stability index was determined as 5.14 ± 0.43 (treatment: DMSO) and 5.2 ± 0.22 (treatment: MLN4924 1 uM, 8 h).
Turning to MQCLISNVEAQLSEIRCDLERQNQ [KRT36], the protein stability index (treatment: DMSO) is 3.53 ± 0.11 and the protein stability index (treatment: MLN4924 1 uM, 8 h) was 3.32 ± 0.22.
The like results for MQGAYCTFPASVLAPVPTHSTVSE [DUSP5] were, in that order, 3.47 ± 0.2 and 3.61 ± 0.17.
Consider MQKRSKAIHSSDEDEDEDDEEDFE [WASL], for which the protein stability index by setting is: (treatment: DMSO) 4.58 ± 0.23; (treatment: MLN4924 1 uM, 8 h) 4.69 ± 0.21.
On to MQSARGPTPSSPLPSVPVSVPASD [PLEKHN1], for which the protein stability index is, setting by setting: (treatment: DMSO) 4.78 ± 0.28; (treatment: MLN4924 1 uM, 8 h) 4.79 ± 0.11.
The like results for MRKTSNSCIMENGHQPGTGPGDGP [SMTNL2] were, in that order, 4.42 ± 0.064 and 4.55 ± 0.11.
The like results for MRNLKASLENSLREVEARYALQME [KRT18] were, in that order, 3.22 ± 0.12 and 3.25 ± 0.38.
For MRRMVATWMLEVCEEQKCEEEVFP [CCND2], in that order: 2.9 ± 0.46 and 3.14 ± 0.045.
For MRVDLRAGDEAVFAQYDSFHVDSA [TNXB], the protein stability index (treatment: DMSO) stood at 3.34 ± 0.56 and the protein stability index (treatment: MLN4924 1 uM, 8 h) turned out to be 3.22 ± 0.37.
With MSDYRGFGIGSEILKNLSQVAMRC [SAT1], the protein stability index by setting is: (treatment: DMSO) 2.11 ± 0.48; (treatment: MLN4924 1 uM, 8 h) 2.46 ± 0.56.
For MSHHPSGLRAGFSSTSYRRTFGPP [PRPH], the protein stability index reads like this: (treatment: DMSO) 2.92 ± 0.23; (treatment: MLN4924 1 uM, 8 h) 2.94 ± 0.1.
For MSKQRERQLRRRALHPERAMDNHS [RETREG3], the protein stability index amounted to 4.31 ± 0.17 (treatment: DMSO) and 4.44 ± 0.088 (treatment: MLN4924 1 uM, 8 h).
In the case of MTTPAGSGSGFGSVSWWGLSPALD [DNAAF3], the protein stability index by setting is: (treatment: DMSO) 2.47 ± 0.29; (treatment: MLN4924 1 uM, 8 h) 2.75 ± 0.36.
For MVFPAKRFCLVPSMEGVRWAFSCG [AASDHPPT], in that order: 2.74 ± 0.79 and 2.77 ± 0.72.
